The values below come from US8273855 (JIANGSU NOVAVAC BIO TEC, dated 2012).

Assay [1] has as its target Notch on primary rat oligodendrocytes and oligodendrocyte precursor cells (rat, UniProt Q07008 19-2531). The experiment in a line: cell-based or functional assay.
For assay [2], the target named is T1, F3 on F3-transfected CHO cells (UniProt P12960 21-1001).
T1 construct: whole, on cells; also called F3-CHO; F3-expressing CHO cells
T1 sequence (looked up): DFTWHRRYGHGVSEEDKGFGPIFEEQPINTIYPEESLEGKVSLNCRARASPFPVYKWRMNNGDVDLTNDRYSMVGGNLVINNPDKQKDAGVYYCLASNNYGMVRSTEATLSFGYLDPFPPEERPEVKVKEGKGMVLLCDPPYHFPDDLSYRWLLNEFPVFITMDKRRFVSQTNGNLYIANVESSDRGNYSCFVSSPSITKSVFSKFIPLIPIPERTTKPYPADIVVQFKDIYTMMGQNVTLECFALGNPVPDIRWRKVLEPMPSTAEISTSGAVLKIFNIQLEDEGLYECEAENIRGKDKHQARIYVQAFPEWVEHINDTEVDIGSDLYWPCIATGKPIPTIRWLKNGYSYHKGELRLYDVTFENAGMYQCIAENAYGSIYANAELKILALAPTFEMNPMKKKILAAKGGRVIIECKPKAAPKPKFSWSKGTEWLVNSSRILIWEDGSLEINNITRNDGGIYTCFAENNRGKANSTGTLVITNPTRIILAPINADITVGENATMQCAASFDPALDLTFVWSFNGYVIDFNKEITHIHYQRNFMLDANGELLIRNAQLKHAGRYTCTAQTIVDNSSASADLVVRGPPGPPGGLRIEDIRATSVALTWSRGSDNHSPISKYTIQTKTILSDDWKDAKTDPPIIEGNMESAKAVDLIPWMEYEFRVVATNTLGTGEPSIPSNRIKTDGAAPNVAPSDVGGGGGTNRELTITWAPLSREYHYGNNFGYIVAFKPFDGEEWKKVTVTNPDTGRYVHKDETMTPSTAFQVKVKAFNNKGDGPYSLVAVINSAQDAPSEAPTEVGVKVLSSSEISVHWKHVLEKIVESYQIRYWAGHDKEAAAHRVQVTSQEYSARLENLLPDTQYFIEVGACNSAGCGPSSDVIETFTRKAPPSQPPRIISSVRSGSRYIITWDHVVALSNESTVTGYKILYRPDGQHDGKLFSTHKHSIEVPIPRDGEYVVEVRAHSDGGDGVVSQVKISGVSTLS
The assay is described as follows: cell adhesion assay, F3-CHO cells on coated substrate.

Another assay addresses T2, Notch2 on OLN-93 cells (rat, UniProt Q9QW30 26-2471).
T2 construct: whole, on cells; also called OLN cells
The experiment in a line: OLN-93 cell adhesion to F3-Fc substrate with antibody blockade. How it is done: This was carried out as previously described (Xiao et al, 1996). Briefly, 35 mm tissue culture petri dishes (Becton Dickinson) were coated with methanol solubilized nitrocellulose (Lagenaur and Lemon, 1987) and air-dried under a sterile hood.

In assay [3] the target is myc-tagged full-length mouse Notch1 on transfected OLN cells (mouse, UniProt Q01705 19-2531). The experiment in a line: cell-based or functional assay.

Chain of Notch on primary rat oligodendrocytes and oligodendrocyte precursor cells (Q07008 19-2531): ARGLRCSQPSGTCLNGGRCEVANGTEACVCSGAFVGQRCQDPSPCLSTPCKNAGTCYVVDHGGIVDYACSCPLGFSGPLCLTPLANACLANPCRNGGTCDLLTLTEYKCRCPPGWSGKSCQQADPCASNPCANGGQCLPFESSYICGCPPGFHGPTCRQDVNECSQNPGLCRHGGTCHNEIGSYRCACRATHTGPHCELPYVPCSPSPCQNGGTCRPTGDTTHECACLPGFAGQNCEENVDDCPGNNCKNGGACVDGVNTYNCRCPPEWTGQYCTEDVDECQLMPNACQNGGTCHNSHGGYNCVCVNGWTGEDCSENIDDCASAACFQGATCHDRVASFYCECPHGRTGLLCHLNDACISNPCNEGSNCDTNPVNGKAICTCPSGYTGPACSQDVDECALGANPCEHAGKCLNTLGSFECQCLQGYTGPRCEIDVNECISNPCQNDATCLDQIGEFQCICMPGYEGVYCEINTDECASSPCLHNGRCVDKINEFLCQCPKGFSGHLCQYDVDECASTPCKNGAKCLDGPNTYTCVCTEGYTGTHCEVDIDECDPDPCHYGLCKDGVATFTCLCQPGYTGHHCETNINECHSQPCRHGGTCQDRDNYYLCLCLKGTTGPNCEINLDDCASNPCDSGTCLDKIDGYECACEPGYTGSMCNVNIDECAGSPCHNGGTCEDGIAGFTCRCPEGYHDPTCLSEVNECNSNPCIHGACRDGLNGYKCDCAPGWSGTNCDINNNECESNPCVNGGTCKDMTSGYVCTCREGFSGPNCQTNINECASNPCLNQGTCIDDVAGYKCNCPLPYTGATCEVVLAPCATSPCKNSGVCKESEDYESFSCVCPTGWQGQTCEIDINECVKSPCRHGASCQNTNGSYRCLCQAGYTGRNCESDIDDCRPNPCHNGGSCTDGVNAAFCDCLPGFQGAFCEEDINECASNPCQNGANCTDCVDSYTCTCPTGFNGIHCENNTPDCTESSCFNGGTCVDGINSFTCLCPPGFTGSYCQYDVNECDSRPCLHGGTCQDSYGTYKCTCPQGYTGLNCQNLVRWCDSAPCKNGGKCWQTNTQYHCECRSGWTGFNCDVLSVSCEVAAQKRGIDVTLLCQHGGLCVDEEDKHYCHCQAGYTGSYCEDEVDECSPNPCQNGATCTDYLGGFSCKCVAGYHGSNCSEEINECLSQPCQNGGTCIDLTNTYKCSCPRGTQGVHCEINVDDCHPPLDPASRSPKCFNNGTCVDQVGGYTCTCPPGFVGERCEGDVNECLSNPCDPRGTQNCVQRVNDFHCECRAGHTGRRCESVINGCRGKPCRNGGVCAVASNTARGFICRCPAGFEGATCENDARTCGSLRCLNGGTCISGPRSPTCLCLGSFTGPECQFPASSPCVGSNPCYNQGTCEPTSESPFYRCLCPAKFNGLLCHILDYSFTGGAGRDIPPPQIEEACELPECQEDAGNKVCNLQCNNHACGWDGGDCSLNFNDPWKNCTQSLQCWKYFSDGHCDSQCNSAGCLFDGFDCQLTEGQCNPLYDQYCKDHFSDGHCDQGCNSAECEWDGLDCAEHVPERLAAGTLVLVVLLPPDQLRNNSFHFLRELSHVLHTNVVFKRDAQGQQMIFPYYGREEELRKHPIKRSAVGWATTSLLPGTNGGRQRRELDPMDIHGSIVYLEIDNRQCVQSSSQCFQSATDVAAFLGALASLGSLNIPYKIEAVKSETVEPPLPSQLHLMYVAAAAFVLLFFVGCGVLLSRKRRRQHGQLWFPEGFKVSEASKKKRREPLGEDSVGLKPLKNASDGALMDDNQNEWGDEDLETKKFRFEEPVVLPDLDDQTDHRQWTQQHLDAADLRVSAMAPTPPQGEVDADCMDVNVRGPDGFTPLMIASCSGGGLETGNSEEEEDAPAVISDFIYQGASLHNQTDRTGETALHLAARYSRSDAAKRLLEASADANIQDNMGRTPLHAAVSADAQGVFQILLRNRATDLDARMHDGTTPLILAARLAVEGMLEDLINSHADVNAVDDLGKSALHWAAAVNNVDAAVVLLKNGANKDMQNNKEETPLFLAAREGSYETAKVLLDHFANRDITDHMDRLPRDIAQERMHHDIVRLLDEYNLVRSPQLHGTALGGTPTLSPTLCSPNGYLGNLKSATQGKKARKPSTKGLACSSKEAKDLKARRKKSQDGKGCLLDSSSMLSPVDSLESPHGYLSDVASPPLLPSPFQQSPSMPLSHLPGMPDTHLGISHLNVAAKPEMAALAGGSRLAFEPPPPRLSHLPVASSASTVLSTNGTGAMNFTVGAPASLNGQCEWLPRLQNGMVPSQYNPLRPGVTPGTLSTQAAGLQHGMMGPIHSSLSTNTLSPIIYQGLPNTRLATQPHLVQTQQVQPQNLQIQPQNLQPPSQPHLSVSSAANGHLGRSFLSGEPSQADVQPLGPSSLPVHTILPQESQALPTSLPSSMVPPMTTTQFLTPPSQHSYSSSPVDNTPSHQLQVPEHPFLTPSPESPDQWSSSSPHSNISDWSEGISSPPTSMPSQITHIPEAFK
T2 sequence (Q9QW30 26-2471): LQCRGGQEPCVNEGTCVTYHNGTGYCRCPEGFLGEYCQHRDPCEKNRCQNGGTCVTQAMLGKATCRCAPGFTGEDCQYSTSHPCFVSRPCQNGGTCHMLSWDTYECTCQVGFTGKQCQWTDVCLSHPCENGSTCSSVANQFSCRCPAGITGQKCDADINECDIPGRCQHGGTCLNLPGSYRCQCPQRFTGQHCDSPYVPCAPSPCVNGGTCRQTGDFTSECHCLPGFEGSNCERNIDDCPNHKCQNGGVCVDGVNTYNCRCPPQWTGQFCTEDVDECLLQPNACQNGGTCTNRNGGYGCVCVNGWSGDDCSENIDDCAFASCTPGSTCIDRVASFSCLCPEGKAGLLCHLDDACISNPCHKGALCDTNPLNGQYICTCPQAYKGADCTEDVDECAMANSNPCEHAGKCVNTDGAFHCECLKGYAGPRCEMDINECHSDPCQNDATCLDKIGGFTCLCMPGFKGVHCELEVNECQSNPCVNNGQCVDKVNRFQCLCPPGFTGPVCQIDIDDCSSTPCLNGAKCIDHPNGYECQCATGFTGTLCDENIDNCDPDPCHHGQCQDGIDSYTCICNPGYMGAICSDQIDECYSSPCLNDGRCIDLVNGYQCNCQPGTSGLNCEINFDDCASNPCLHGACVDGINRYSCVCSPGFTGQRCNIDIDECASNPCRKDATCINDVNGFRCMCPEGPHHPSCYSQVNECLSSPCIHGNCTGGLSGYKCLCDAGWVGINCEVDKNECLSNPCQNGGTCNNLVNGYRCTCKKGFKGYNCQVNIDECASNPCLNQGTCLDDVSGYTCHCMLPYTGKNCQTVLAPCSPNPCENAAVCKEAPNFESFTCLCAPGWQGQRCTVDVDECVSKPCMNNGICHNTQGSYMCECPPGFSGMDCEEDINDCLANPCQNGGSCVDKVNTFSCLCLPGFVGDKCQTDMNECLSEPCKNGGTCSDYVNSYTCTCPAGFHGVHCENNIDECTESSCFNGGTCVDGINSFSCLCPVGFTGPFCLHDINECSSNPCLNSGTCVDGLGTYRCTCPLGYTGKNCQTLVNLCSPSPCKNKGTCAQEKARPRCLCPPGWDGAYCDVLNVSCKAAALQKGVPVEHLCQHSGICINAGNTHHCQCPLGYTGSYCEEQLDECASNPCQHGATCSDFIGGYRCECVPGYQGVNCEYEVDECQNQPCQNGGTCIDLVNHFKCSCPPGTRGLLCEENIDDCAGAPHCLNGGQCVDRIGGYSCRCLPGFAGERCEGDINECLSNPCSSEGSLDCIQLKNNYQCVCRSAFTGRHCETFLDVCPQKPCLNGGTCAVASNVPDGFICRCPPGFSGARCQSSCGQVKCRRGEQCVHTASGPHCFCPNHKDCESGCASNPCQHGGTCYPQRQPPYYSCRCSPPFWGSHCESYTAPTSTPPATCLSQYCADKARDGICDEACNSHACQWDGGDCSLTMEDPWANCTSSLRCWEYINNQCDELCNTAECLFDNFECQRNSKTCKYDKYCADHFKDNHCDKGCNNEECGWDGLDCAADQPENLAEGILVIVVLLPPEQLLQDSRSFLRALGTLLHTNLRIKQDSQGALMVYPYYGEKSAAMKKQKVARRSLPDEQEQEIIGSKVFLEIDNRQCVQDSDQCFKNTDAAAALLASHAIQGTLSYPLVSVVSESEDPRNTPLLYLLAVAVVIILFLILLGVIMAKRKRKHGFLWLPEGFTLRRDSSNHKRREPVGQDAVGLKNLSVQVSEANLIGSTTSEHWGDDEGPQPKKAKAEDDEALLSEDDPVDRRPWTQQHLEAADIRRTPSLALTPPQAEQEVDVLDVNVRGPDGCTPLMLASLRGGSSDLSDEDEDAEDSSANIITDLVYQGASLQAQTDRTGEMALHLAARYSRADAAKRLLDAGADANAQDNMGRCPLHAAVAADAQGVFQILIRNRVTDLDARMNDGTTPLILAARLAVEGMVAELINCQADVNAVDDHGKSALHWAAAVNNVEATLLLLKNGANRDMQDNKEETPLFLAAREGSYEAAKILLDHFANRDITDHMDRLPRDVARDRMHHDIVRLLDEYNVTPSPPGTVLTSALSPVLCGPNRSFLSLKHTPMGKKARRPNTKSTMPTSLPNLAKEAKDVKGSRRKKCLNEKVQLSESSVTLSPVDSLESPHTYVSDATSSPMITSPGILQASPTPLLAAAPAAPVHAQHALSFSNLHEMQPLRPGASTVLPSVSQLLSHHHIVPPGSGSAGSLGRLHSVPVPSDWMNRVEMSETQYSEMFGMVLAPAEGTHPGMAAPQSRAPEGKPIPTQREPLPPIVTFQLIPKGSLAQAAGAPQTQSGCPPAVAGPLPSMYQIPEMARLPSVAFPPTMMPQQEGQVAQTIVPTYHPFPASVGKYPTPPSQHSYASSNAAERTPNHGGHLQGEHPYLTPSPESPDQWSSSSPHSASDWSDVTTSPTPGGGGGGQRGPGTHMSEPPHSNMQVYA

B1: NB-3-His (ligand, rat)
chain: ESRFTRPIFIQEPQDVIFPLDLSRSEIILSCTASGYPSPHYRWKQNGTDIDFSMTYHYRLDGGSLAISSPRTDQDIGIYQCLATNPVGTILSRKAKLQFAYIEDFETKSRSTVSVREGQGVVLLCGPPPHFGELSYDWTFNDNPLYVQEDKRRFVSQNTGNLYIAKVEPSDVGNYTCFVTNKEAHRSVQGPPTPLVQRTDGVMGEYEPKIEVRFPETIQAAKDSSVKLECFALGNPVPDISWRRLDGSPMPGKVKYSNSQATLEIPKFQQEDEGFYECVAGNLRGRNLAKGQLIFYAPPEWEQKIQNTYLSIYDSLFWECKASGNPNPSYTWLKNGERLNTEERIQTENGTLIITMLNVSDSGIYQCAAENKYQTIYANAELRVLASAPDFSKNPIKKISVVQVGGDISIECKPNAFPKASISWKRGTENLKQSKRVFFLEDGSLKICNVTRSDAGSYTCVATNQFGNGKSSGSLIVKERTVITVPPSKMDVTVGESIVLPCQVSHDPTMEVLFVWYFNGDVIDLKKGVAHFERIGGESVGDLMIRNIQLGHSGKYLCTVQTTLERLSAVADIIVRGPPGPPEDVKVEHISSTTSQLSWRPGPDNNSPIQIFTIQTRTPFSVGWQAVATVPEILNGQTYNATVIGLSPWVEYEFRVVAGNNIGIGEPSKPSELLRTKASIPNVAPVNINGGGGSRSELVITWEPIPEELQNGEGFGYIIMFRPVGSTTWMKEKVALVESSKFIYRNESIMPLSPFEVKVGVYNNEGEGSLSTVSIVYSGEDEPRLAPRGTSVQSFSASDMEVSWNAIAWNRNTGRVLGYEVLYWTDNSKESMIGKIRVSGNVTTKNITGLRANTIYFASVRAYNTAGTGPSSPPVNVTTKKSPPSQPPANIAWKLSNSKLCLNWEHVKTMENESEVLGYKILYRQNRQSKTHVLETNNTSAELLVPFEEDYLIEIRTVSDGGDGSSSEEIRIPKMSSLSSHHHHHH
In the case of B1, the “MAG mRNA, real-time RT-PCR, primary oligodendrocytes on protein substrate against BSA” value in assay [1] was approximately 8 fold.

B2: GST-Nogo-66 (other, UniProt Q9NQC3 1055-1120, looked up)
chain: RIYKGVIQAIQKSDEGHPFRAYLESEVAISEELVQKYSNSALGHVNCTIKELRRLFLVDDLVDSLK
notes: also called Nogo-66-GST; recombinant GST-Nogo-66 protein; not shown: glutathione S-transferase (GST) encoded by vector pGEX-KG
As to B2, the binding result in assay [2] is given as “no binding”.

B3: F3-Fc (Fc fusion, mouse, UniProt P12960 21-1001, looked up)
chain: T1 sequence (looked up)
notes: domain: F3 without the GPI-anchor; also called F3 substrate; soluble F3; not shown: human IgG Fc
B3: in the assay with Notch2 on OLN-93 cells, the binding result is on record as “binds”. In assay [1], the “MAG mRNA, real-time RT-PCR, primary oligodendrocytes on protein substrate against BSA” value was approximately 8 fold and the “MAG transcripts, real-time PCR, primary OLs on F3 substrate against BSA” value was approximately 16 fold. For the same molecule, in assay [3], the “nuclear NICD staining intensity” value stood at 2 fold.
